Assay: recombinant expression in Sf9, not detailed
Conditions: glycan lost; control: initial domain III preparation, sites intact

For “EGFR domain III (EGFRD3): N328D and N420D”, the “other: solubility” value was “increases”.
